The text below walks through data of article PMC2628434.

Changes are numbered by the printed parent chain. In names and notes the source's numbering stands. Where two headings read alike, the source gives them in different places.

The target in data set [1] is T1, LuxR (Vibrio harveyi, UniProt P21308 1-205).
T1 sequence: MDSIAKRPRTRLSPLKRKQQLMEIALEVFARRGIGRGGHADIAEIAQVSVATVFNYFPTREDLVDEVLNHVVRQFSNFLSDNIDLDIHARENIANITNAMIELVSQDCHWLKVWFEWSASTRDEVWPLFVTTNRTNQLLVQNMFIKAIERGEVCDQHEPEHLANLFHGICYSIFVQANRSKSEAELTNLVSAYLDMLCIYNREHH
Description: fluorescence anisotropy.

For data set [2], the target named is T1, LuxR. Description: fluorescence anisotropy. This is another data set of the same source.

B1: VP0057/8 (dsDNA)
DNA 1: AACATTACTGATAAATTAGATATTTATGGCT
DNA 2: AGCCATAAATATCTAATTTATCAGTAATGTT
Consider B1, for which the Kd (usually the equilibrium constant for the complex coming apart) with LuxR [1] stood at 47 ± 8 nM.

B2: qrr4 A17C (dsDNA)
DNA 1: CATTTTTCTGATAAATGTATTCGTAGCAATG
DNA 2: CATTGCTACGAATACATTTATCAGAAAAATG
Take B2: in the data set with LuxR [1], the Kd turned out to be 38 ± 5 nM.

B3: qrr4 A6C (dsDNA)
DNA 1: B2 DNA 1 with A11C, C22A
DNA 2: B2 DNA 2 with G10T, T21G
In the case of B3, binding with LuxR [1] was characterised by a dissociation constant (Kd) of 68 ± 11 nM.

B4: qrr4 A6C A17C (dsDNA)
DNA 1: B2 DNA 1 with A11C
DNA 2: B2 DNA 2 with T21G
Take B4: in the data set with LuxR [1], the Kd stood at 112 ± 27 nM.

B5: qrr4 WT (dsDNA)
DNA 1: B2 DNA 1 with C22A
DNA 2: B2 DNA 2 with G10T
In the data set with LuxR [1], B5 displayed a dissociation constant Kd of 35 ± 4 nM.

B6: qrr4 T15C (dsDNA)
DNA 1: B2 DNA 1 with T20C, C22A
DNA 2: B2 DNA 2 with G10T, A12G
In the case of B6, in the data set with LuxR [1], the Kd was 27 ± 4 nM.

B7: qrgB WT (dsDNA)
DNA 1: TGTTTATATTGAGTTCACAATCAATACCGATCA
DNA 2: TGATCGGTATTGATTGTGAACTCAATATAAACA
Take B7: the equilibrium dissociation constant (Kd) in the data set with LuxR [1] was found to be 27 ± 3 nM.

B8: qrgB A2C (dsDNA)
DNA 1: B7 DNA 1 with A8C
DNA 2: B7 DNA 2 with T26G
In turn, B8 displayed a dissociation constant Kd in the data set with LuxR [1] of 27 ± 4 nM.

B9: qrgB A17C (dsDNA)
DNA 1: B7 DNA 1 with A23C
DNA 2: B7 DNA 2 with T11G
B9: the Kd with LuxR [1] came to 43 ± 6 nM.

B10: qrgB A6C (dsDNA)
DNA 1: B7 DNA 1 with A12C
DNA 2: B7 DNA 2 with T22G
The molecule B10 showed a dissociation constant (Kd) with LuxR [1] of 44 ± 5 nM.

B11: qrgB A2C A17C (dsDNA)
DNA 1: B7 DNA 1 with A8C, A23C
DNA 2: B7 DNA 2 with T11G, T26G
In the data set with LuxR [1], B11 gave a Kd of 242 ± 46 nM.

B12: Negative control (dsDNA)
DNA 1: ACTGACTGACTGACTGACTGACTGACTGACT
DNA 2: AGTCAGTCAGTCAGTCAGTCAGTCAGTCAGT
B12 gave a Kd with LuxR [2] of 136 ± 63 nM.

B13: Consensus (dsDNA)
DNA 1: ACTGATATTGATAAATTTATCAATAATGACT
DNA 2: AGTCATTATTGATAAATTTATCAATATCAGT
In turn, B13 showed a dissociation constant Kd with LuxR [1] of 24 ± 4 nM.

B14: VPA0649 (dsDNA)
DNA 1: ATTCCTTATTTACCAATTTATAAACTATGAA
DNA 2: TTCATAGTTTATAAATTGGTAAATAAGGAAT
Turning to B14, the Kd with LuxR [1] came to 30 ± 8 nM.

B15: VP0944/5 (dsDNA)
DNA 1: TAGAGTTAGTATCAATTTAATCAATAAGATA
DNA 2: TATCTTATTGATTAAATTGATACTAACTCTA
Take B15: the Kd with LuxR [1] stood at 30 ± 7 nM.

B16: VPA0197/8 (dsDNA)
DNA 1: TAAGGTAAATAATTATTTTAACAATAATTAA
DNA 2: TTAATTATTGTTAAAATAATTATTTACCTTA
Turning to B16, the Kd in the data set with LuxR [1] amounted to 68 ± 11 nM.

B17: VPA0226/7 (dsDNA)
DNA 1: ACCAAAATTGATAAAATGAATAATTAGATAT
DNA 2: ATATCTAATTATTCATTTTATCAATTTTGGT
In the data set with LuxR [1], B17 came in with a dissociation constant (Kd) of 73 ± 12 nM.
